The results in this text go back to patent US10849992B1, “Methods of screening for sortilin binding antagonists” (ALECTOR LLC, priority 2015, dated 2020).

Assay [1] deals with T1, Sortilin (Homo sapiens, UniProt Q99523).
T1 sequence (Q99523 78-831): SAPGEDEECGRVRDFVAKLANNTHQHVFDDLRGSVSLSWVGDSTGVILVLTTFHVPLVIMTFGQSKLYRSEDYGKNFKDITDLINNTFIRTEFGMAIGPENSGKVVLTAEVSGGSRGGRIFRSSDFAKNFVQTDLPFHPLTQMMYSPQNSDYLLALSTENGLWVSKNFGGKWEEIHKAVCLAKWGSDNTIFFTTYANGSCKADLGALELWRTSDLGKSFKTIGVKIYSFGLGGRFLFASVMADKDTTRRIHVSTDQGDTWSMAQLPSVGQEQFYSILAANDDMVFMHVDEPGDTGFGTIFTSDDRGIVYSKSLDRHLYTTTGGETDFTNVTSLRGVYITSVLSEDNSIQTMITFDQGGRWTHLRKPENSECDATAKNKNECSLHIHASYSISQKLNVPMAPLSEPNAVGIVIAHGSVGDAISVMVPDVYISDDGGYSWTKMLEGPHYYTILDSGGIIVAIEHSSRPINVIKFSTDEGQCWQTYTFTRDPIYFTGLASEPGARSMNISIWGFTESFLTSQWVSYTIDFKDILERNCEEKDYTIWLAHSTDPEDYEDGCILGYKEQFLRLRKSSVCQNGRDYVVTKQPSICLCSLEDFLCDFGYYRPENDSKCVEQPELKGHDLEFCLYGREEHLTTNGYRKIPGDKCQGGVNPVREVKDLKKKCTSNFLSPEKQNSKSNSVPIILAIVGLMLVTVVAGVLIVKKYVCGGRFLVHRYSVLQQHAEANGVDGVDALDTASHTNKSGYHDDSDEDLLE
Description: Cell-based PGRN-conditioned media assay (PGRN ELISA). Further details: expressed in transfected cells; host or cells: HEK293T. Particulars: sortilin-expressing HEK293T; 36-48 h; 1 or 10 μM pro-peptide, 6.7 or 67 nM antibody. Here is the method: HEK293T cells were transiently transfected with constructs for expressing sortilin or LacZ (control) and incubated with PGRN-conditioned media collected from PGRN transfected HEK293T cells. PGRN levels remaining in the media were measured after 36-48 h using a PGRN ELISA Duoset kit (R&D Systems). Cells were incubated with 1 or 10 μM sortilin pro-peptide, 6.7 nM or 67 nM goat anti-sortilin antibody (SORT1 Ab), or 67 nM control IgG.
To prepare hPGRN-conditioned media, Hek293T cells were transiently transfected with full-length, untagged human PGRN (pCMV-Sport6, Thermo Scientific) using Fugene HD (Promega). Media containing PGRN was collected after 48 h. For the experiment, Hek293T cells were transiently transfected with human Sortilin (untagged in Topo3.3) or lacZ (control, Topo3.3) using Fugene HD. After 4-6 h, media containing a 1:5 dilution of PGRN conditioned media was added to the cells with or without blockers [1 or 10 uM Sortilin pro-peptide; 6.7 or 67 nM goat anti-Sortilin antibody (SORT1 Ab, R&D Systems, AF3154) or control IgG (R&D Systems, AB-108-C)]. Cell supernatant was collected after 48 h and analyzed using a PGRN Elisa Duoset kit (R&D Systems, DY2420).

Assay [2] has as its target T1, Sortilin. Put plainly: Cell-based microscopy assay: DyLight-650 PGRN binding and endocytosis. Particulars: 10 μM blocker with 40 nM DyLight-650 PGRN, listed as sortilin pro-peptide. The arrangement: expressed in transfected cells; host or cells: HEK293T. Here is the method:
HEK293T cells were transiently transfected with constructs for expressing sortilin or LacZ (control) and incubated with PGRN labeled using DyLight-650 (Life Technologies, Carlsbad, Calif.) for up to 60 minutes at 37° C. Binding and endocytosis of PGRN were observed by fluorescence microscopy. Recombinant human Progranulin (Adipogen) was labeled with DyLight 650 (Life Technologies, Carlsbad, Calif.). Cells were transiently transfected with human Sortilin or lacZ (control) and GFP using Fugene and harvested after 24 h. GFP was either expressed by a second vector (Topo3.3, Invitrogen) or located on the same vector, separated by an IRES (pCMV6-AC-IRES-GFP, Origene). Full-length Sortilin was used either untagged (Topo3.3) or with a C-terminal myc tag (pCMV6-AC-IRES-GFP). Cells were then plated on microscopy chambered glass slides coated with poly-1-lysine. After 4-6 h, cells were washed in OptiMem serum-free media, and 40 nM Progranulin-650 was added with or without 10 uM Sortilin pro-peptide as a blocker. Cells were incubated at 37° C. for up to 60′. Subsequently, cells were fixed in 4% paraformaldehyde, washed in PBS and imaged on a Nikon fluorescent microscope.

For assay [3], the target named is T1, Sortilin. Description: FACS assay: sortilin-mediated PGRN-DyLight650 binding and endocytosis. It counts as cell-based. The arrangement: Full-length Sortilin was used either untagged (Topo3.3) or with a C-terminal myc tag (pCMV6-AC-IRES-GFP); myc (only in the pCMV6-AC-IRES-GFP construct); expressed in transfected cells; host or cells: HEK293T. Particulars: FIG. 10B. (In general: A flow cytometer gives signals particle by particle.)
Description: Sortilin-expressing cells were GFP-positive, and untransfected cells were GFP-negative (as labeled in FIG. 10A).
A second assay was developed using DyLight-650-conjugated PGRN protein. In this assay, binding and endocytosis of PGRN were observed using either fluorescence microscopy (FIG. 9A-9F) or FACS (FIGS. 10A and 10B).

Entries after “also recorded” stand apart in the source; their conditions may differ.

For the substance “sortilin pro-domain peptide: peptide of the Sortilin1 pro-domain used as a blocker of PGRN binding (QDRLDAPPPPAAPLPRWSGPIGVSWGLRAAAAGGAFPRGGRWRR)”, the “PGRN levels in the media (rescue of sortilin-mediated reduction)” value in assay [1] is “partially rescued”. The “PGRN binding and endocytosis (DyLight-650 fluorescence)” value in assay [2] is reported as “not observed; also recorded: little signal”. Besides, the “blocking of PGRN binding to transfected cells” value in assay [3] is listed as “blocked”.
